Measured values as given in the nanobody polyreactivity screen of Harvey et al. (2022).

assay: yeast display, Sf9 membrane polyspecificity reagent, FACS + sequencing; frameworks hold sequencing errors
Outline: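 Galactose induction of a Saccharomyces cerevisiae BJ5465 synthetic nanobody display library ran 36–48 hours. The cells were then stained for 1 hour at 4 °C with 10% biotinylated, detergent-solubilized Sf9 membrane reagent, pulled down on streptavidin microbeads and FACS-sorted into low and high (top ~1%) gates on expression and reagent-binding fluorescence. Labels for polyreactivity follow the gate of origin.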

Sequence | polyreactivity (PSR sort gate)
QVQLVESGGGLVQAGGSLRLSCAASRFLFWSYAMGWYRQAPGKERELVAAISWRGGSTYYADSVKGRFSISRDTAKNTVYLQMNSLKPEDTAVYYCAAERYNGYDYWGQGTQVTVSS | high polyreactivity
QVQLVESGGAKVQAGGSLRLSCAASGRTFDYYVMGWNRQAPVKEREFVAAITWSGDSTYYADSVKGRFTISRENAKNTVYLQMNSLKPEDTAVYYCNADYYPTTFYAFVYMYDYWGQGTQVTVSS | low polyreactivity
QVQLVESGGGLVQAGGSLRLSCAASGSYTMGWYRQAPGKERELVAAISKSGGSTYYADSVKGRFTISRDNAKNTVYLQMNRLKPEDTAVYYCAAVGWWGTYDYWGQGTQVTVSS | high polyreactivity
QVQLVESGVGLVQAGGSLRLSCAASGSIFGYYVMGWYRQAPGKERELVAAISGSDSSTYYADSVKGRFTISRDNAKNTVYLQMNRLKPEDTAVYYCNADQRYYPVEFDYWGQGTQVTVSS | low polyreactivity
QVQLVESGGGLVQAGGSLRLSCAASGSTFYQNAMGWYRQAPGKERELVAAISSSGRTYYADSVKGRFTISRDNAKNTVYLQMNSLKPEDTAVYYCAVGAYGSLYSIRVAYGSMDYWGQGTQVTVSS | high polyreactivity
QVQLVESGGGLVQAGGSLRLSCAASGSTFPYNVMGWYRQAPGKEREFVAAISSSSGSTYYADSVKGRFTISRDNAKNTVYLQMNSLKPEDTAVYYCARRHPRQRQDGKVDYWGQGTQVTVSS | low polyreactivity
QVQLVESGGGLVQAGGSLRLSCAASGSTFPRNDMGWYRQAPGKERELVAAISRGGSTNYADSVKGRFTISRDNAKNTVYLQMNSLKPEDTAVYYCAAQIFECAYGMDYWGQGTQVTVSS | low polyreactivity
QGQLVESGGGLVQAGGSLRLSCAASGSIFSVNTMGWYRQAPGKERELVATIRTGDSTNYADSVKGRFTISRDNAKNTVYLQMNSLKPEDTAVYYCAADWSSLNFDYWGQGTQVTVSS | low polyreactivity
QVQLVESGGGFVQAGGSLRLICAASGSILHSYSMGWYRQAPGKERELVAAISGSGGSTYYADSVKRRFTISRDNAKNTVYLQMNSLKPEDTAVYYCAAVWSRADRYYYWGQGTQVTVSS | low polyreactivity
QVQLVESGGGLVQAGGSLRLSCAASGSIFYYAMGWYRQAPGKERELVAAITTGDGTNYADSVKGRFTISRDNAKNTVYLQMNSLKPEDTAVYYCNSLPYQVWKRYSWGQGTQVTVSS | low polyreactivity
QVQLVESGGGLFQAGGSLRLSCAASGSIFYYYAMGWYRQAPGKERELVAAITRSSGSTYADSVKGRFTISGDNAMYTVYVQMNSLKPEDTAVYYCATVQSDWRRNYSYYHWGQATQVTVSS | high polyreactivity
QVQLVESGGGLVQAGGSLRLSCAASGRIFFYYAMGWYRQAPGKERELVAAINRGGRTYYADSVKGRFTISRDNAKNTVYLQMNSLKPEDTAVYYCAADGQTAKSNFDYWGQGTQVTVSS | low polyreactivity
QDQLVESGGGLVQAGGSLRLSCAASGSIFYRNAMGWYRQAPGKERELVAAITRGGITNYADSVKGRFTISRDNAKNTVYLQMNSLKPEDTAVYYCPRVPGRTTQYDYWGQGTQVTVSS | low polyreactivity
QVQLVESGGGLVQAGGSLRLSCAASGRTFYYNAMGWDRQAPGKESELVARITYRSGRTNYADSVKGRFTISRDNAKNTVYLQMNSLKPEDTAVYYCAAAWWCGAGRTRYEYWGQGTQVTVSS | high polyreactivity
QVQLVESGGGLVQAGGSLRLSCAASGFIFSRNAMGWYRQAPGKERELVAAISSTGGITYYADSVKGRFTISRDNAKITVYLQMNSLKPEDTAVYYCAAGFYGYARHSWYKYWGQGTQVTVSS | high polyreactivity
QVQLVESGGGLVQAGGSLRLICAASGLTFTKYAMGWYRQAPGKERELVATITSGGSTNYADSVKGRFTISRDNAKNTVYLQMNSLKPEDTAVYYCNRDNYKWPYWEFDYWGQGTQVTVSS | high polyreactivity
QVQLVESGGGLVQAGGSLRLTCAASGITFRKYAMGWYRQAPGKERELVAGIRYSGSSTYYADSVKGRFTISRDNAKNTVYLQMNSLKPEDTAVYYGATGGYVWYRSVNVWTRMDYWGQGTQVTVSS | high polyreactivity
QVQHVESGGGLVQAGGSLRLSCAASGLTFSQNAMGWYRQPQGQERELVAAISSSGTSTYYADSVKGRFSISRDNAKNTVYLQMNSVKPEDTAVYYCNAPPGTFQWQGHSDYWGQGTQVTVSS | low polyreactivity
QVQLVESGGGLVQGGGSLRLSCAASGRIFGHYVMGSYRQAPGKERELVAAISYSGGSTYYADSVKGRFTISRDNAKNTVYLQMNSLKPEDTAVFYCAARVTQDSPYGAYYYWGQGTQVTVSS | high polyreactivity
QVELVESGGGLVQAGGCLRLSCAASGGIFESYAMGWYRRAPGRERELVADSTSGGSTNYADSVKGRFTIAGDNAKNTLYLQMNSLKPEDTAVYYCAKEFYYSVGVNLGDSWGQGTQGTVSS | low polyreactivity
QGQLVESCGCLVQAGGSLRLSCAASGSTFVVYDMGWYRQAPGKERELVAAITWSGGSTYYADSVKGRFTISRDNAKNTVYLQMNSLKPEDTAVYYCNKVTWHQGHDYWGQGTQVTVSS | low polyreactivity
QVQLVESGGGLVQAGGSLRLSCAASGSIFRYYDMGWYRQAPGKERELVAAISYSDGRTYYADSVKGRFTISRDNAKNTVYLQMNSLKPEDTAVYYCAAETLYVSPYFFVVQYDYWGQGTKVTVSS | high polyreactivity

Sequence | polyreactivity (PSR sort gate)
QVQLVESGGGLVQAGGSLRLSCAASGRIFVVYAMGWYRQAPGKERELVAAITYGGGSTHYADSVKGRFTISRDNAKNTVYLQMNSLKPVDTAVYYCAADVYLVKYDYWGQGTQVTVSS | low polyreactivity
QVQLVESRGGLVQAGGSLRLSCPDSGYIFFTNSMGWYRQEPGKERELVAAISSAGRTKYADSVKGRFTISRDNAKNTVYLQMNSLKPEDTAVYYCNKAFYYLWGTGYDYWGQGTQVTVSS | low polyreactivity
QVHLVESGGGLVQAGGSLGISCAASGRILYGYAMGWNRQAPGKERELVAAITATYYADSVKGRFTISRDNAKNSVYLQMNSLNPEDTGVFYCNAYLCPIQPLSPPDPTFEGGYWGQGTQVTVSS | low polyreactivity
QVQLVESGGGLVQAGGSLRLSCAASGRIFPRYALGGYRQAPGKERELVAGISRSGGSTYYADSVKGRFTISRDNAKNTVYLQMNSLKPEDTAVYYCNTGGHYGARKYDYWGQGTQVTVSS | low polyreactivity
QVQLVESGGGLVQAGGSLRLSCAASGSIFSTYAMGWYRQAPGKERELVATINYSGGSTYYADSVKGRFTISRDNAKNTVYLQMNSLKPEDTAVYYCNTGPFVGFDYWGQGTQVTVSS | low polyreactivity
QVQLVESGGGLVQAGGSLRLSCAASGIILHYYAMGWYRQAPGKERELVAAISARGGRTYYADSVKGRFTISRDNANNTVYLQMNSLKPEDTAVYYCAAVTVASPTRMDYWGQGTQVTVSS | high polyreactivity
QVQLVESGGGLVQAGGSLRLSCAASGSTFQSYAMGWYRQAPWKERELVAAITTTGTRTYYADSVKGRFTISRDNAKNTVYLQMNSLKPEDTAVYYCNAQRLQAHRTSRRYGYWGQGTQVTVSS | high polyreactivity
QVQLVESGGGLVQAGGSHRLSCAASGYTFARYAMGWYRQAPGKERELVAAISRSGGGTYYADSVKGRFTISRDNAKNTVYLQMNSLKPEDTAVYYCATDRVQGLGRFDYWGQGTQVTVSS | high polyreactivity
QVQLVESGGRLVQAGGSLRLSCAASGGTFPTNAMGWYTQAPGKERELVAAITSSGVRTYYADSVKGRFTISRDNAKNTVYLQMNSLKPEDTAVYYCNAVTRYVRLTDDDYWGQGSQVTVSS | high polyreactivity
QVQLVESGGGLVQAGGSLRLSCAASGRTFQYYAMGWYRQAPGKERVLVAAITSSGGSTYYADSVKGRFTISRHNAKNTVYLQMNSLKPEDTAVYYCAAEDGLQGNYNYGYDYWGQGTQVTVSS | low polyreactivity
QVQILESGGGLVQAGGSLGLSCAASGSTFPPYAMGWYRQAPGKERELVATITRGGSTYYADSVKGRFTFSRDNAKNTVYVQMNSLKPADTAVYDCNAKVNRSRRSNLYDYWGQGTQVTVSS | high polyreactivity
QVQLVESGGGLVQAGGSLRLSCAASGSIFQVYAMGWYRQAPGKEREFVAAISYSGGGTYYADSVKGRFTISRDNAKNTVFLQMNSLKPEDTAVYYCAADVSGWEYDFWGLGTQVTVSS | low polyreactivity
QVQLVESGGGLVQAGGSLRLSCAASGFTFRIYAMGWYRQAPGKERELVAAITSSGGTTYYADSVKGRFTISRDNAKNTVYLQMNSLKPEDTAVYYCNVAGFKYYSWGTYDYWGQGTQVTVSS | high polyreactivity
QVQLVESGGGLVQAGGSLRLSCAASGSTYKGYAMGWYRQAPGKERELVAAISSSGGGTYYADSVKGRFTISRDNAKNTVYLQMNSLKPEDTAVYYCAATYYRGNYRTHYDYWGQGTQVTVSS | high polyreactivity
QVQLVESGGGLVQAGGSLRLSCAASGFTFNRYAMGWYIEAPGKERELVASITTGGRTNYADSVKGRFTISRDNAKNTVYLQMNSLKPVDTAVYYCAADYCYFYRYYYWGQGTQVTVSS | high polyreactivity
QVQLVESGGGLVQAGGSLRLSCAASGRTLIAYAMGWYRQAHGKEREFVAAIRADDGRTYYADSVKGRFTISRDNAKNTVYFQMNSLKPEDTAVYYCDTKADKRYRFGYWGQGTQVTVSS | high polyreactivity
QVQLVESWGGLVQAGGSLRLRCAASGRIFVSNAMGWYRQAPGKERELVAAISKRGASTYYADSVKGRFTISRDNAKNTVYLQMNSLKPEDTAVYYCNVVTPGGPNYDYWGQGTQVTVSS | high polyreactivity
QVQLVESGGGLVQAGGSLRLSCAASGRIFPPNAMGWYRQAPGKERELVAGITSSGDTTYYADSVKGRFTISRDNAKNTVYLQMTSLKPEDTAVYYCAKDEVYADDRSALFDYWGQGTQVTVSS | low polyreactivity
QVQLVESGGGLVQAGGRLRLSCAASGSIFTYNAMGWYIQAPGKERELVAAISASGGRTYYADSVKGRFTISRDNAKNTVYLQMNILKPEDTAVYYCAARIRVSGLRRFDYWGQGTQVTVSS | high polyreactivity
QVQLVESGGGLVQAGGSLRLSCAASGSTFTSNTMGWCRQAPGKERELVAGITGAGSTNYADSVKGRFTISRDNEKNTVYLQMNSLKPEDTAVYYCAASVRWPRVSQRARYGYYYWGQGTQVAVSS | high polyreactivity
QVQLVESGGGLVQAGGSLRLSCAASGSTFRYNAMGWYRQAPGKERELVAVISWGGGRTYYADSVKGRFTISRDNAKNTVYLQMNSLKPEDTAVYYCNVYFGRIVARDYGYWGQGTQVTVSS | high polyreactivity
